Measured values as given in the supplement of paper PMC12042874.
± gives the uncertainty stated by the source.

Assay: amyloid nucleation score (Sup35N fusion, yeast selection) (log enrichment); library NNK2; higher = more nucleation; inactive = no reads after selection
Procedure, shortened: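 The nucleation score equals the log enrichment of output over input reads from DiMSum, centred on the mode score of non-aggregating sequences. It was computed only for sequences with 100 or more input reads. The reads came from Illumina sequencing of plasmid inserts from psi-negative yeast expressing Sup35N fused to peptides of 20 random codons, induced with 100 μM copper sulfate for 24 hours and grown 7 days at 30°C without adenine and uracil.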

Row | Substance | amyloid nucleation score
1 | DDVSIL | 0.14 ± 1
2 | AGYDATW | 0.461 ± 0.65
3 | GYCPLGAPCAGM | 1.23 ± 0.2
4 | LVHCLSPRIVATGVPHGMMV | 1.04 ± 0.35
5 | GVGVGLYKFLTPCFYGEDDE | 0.594 ± 0.57
6 | NPYAHTGHCVIRGFFVA | 0.275 ± 0.53
7 | RSFLLVLAELCFT | 4.22 ± 0.12
8 | VHYMHLSRLLKLHAEPLAFW | -0.02 ± 0.55
9 | WIDGVFTIVSFYMELEGIRV | inactive
10 | SNVSGCMELFNWVGYFPVSP | -0.733 ± 0.62
11 | WINLSRFFSLGKFRIAIRYY | -1.04 ± 1.1
12 | FGCSVNRKILVLMFVNVISV | -0.627 ± 0.39
13 | RFRHGNDYGSYYFCGLLGSM | 0.264 ± 0.46
14 | RCFSTHVAQDQLFVY | inactive
15 | TYSLKFGSVVGRNYNLGY | 2.08 ± 0.1
16 | VSLLFTPTNEYIWGTPLALR | inactive
17 | EMNFKALLKGVNGFVWDGVF | 1.43 ± 0.21
18 | GVSLLVSTSHGFVREPQVTS | 0.526 ± 0.66
19 | RFIND | -0.703 ± 1
20 | YMRVLYIRRLWIHFL | 1.92 ± 0.18
21 | NCFNLEKGQMCPDWNGSSYT | -0.667 ± 0.39
22 | RHSLYVFY | 1.69 ± 0.33
23 | LIVCRFDFPSNFSVDFFRVM | 0.14 ± 0.74
24 | FVRLTRIVESGYYDIFGKIK | -0.429 ± 0.39
25 | KTSWFGYSWNDHHSIRHQCS | 0.84 ± 0.43
26 | MPLCECHNKGHVDFCDTRTA | -0.072 ± 1.1

Row | Substance | amyloid nucleation score
27 | CCYQVSYCIVSVIDSVEYGP | 6.991 ± 0.033
28 | LWFLVFMDMVRRWRGNHRGE | -0.656 ± 1.1
29 | LRLGHVIPGVKNCREEND | -0.745 ± 0.3
30 | KDYSGGIRHPVVPSGMISYL | -1.44 ± 1.1
31 | MFSMGEAAAL | 0.305 ± 0.3
32 | FYVVFLNGVLLDYNDDLYGI | inactive
33 | ICCTSSANNSTPPQSCWTPK | 5.84 ± 0.076
34 | SRCASKFVTWEAYYTVSVKR | 0.25 ± 0.8
35 | MSRWKVHFTMRTSPCIVNEH | 1.17 ± 0.45
36 | IGKSEYVEFRLTSSP | 0.354 ± 0.53
37 | LYFMCNFLTCSL | 7.893 ± 0.057
38 | RFRLWIVCG | -0.253 ± 0.26
39 | YSRFYLYMSRRGMRS | -0.122 ± 0.53
40 | RDVRQVQRWSYCWRARTRSA | 1.19 ± 0.25
41 | NNMKVDAVVYIATKPGHWDQ | 7.589 ± 0.034
42 | HWFNSTRK | 0.187 ± 0.36
43 | KSHHGWSTIRCNRWYIS | inactive
44 | TGHWQLQNSSQA | 0.841 ± 0.28
45 | RIYLVAIYL | 3.49 ± 0.067
46 | IVNCCSYLYTRIHNVGPAGN | 6.383 ± 0.063
47 | RRMNHLPFCCKRYRTSRPKF | 0.222 ± 0.64
48 | FDNRNVSVSYPYNKMGNRVM | 2.57 ± 0.069
49 | RILYLTTDGRKLM | inactive
50 | IYAQAFFVYHTLFWGGGDQW | 0.495 ± 0.16
51 | RVYLFFYAYHHVICANSSYK | -1.11 ± 0.56
52 | AYMSYRAGMDRLQCDVS | -0.947 ± 1.1

Row | Substance | amyloid nucleation score
53 | MSRWTKIGNFDNIPSIPLVV | -0.228 ± 0.36
54 | NPLRWEWAGVWLRYTR | 0.816 ± 0.58
55 | YFGSIIIYRIPAVPQILSVN | inactive
56 | SPIYYIKGYFLLISKCFADR | 4.56 ± 0.073
57 | MACKGLSLCFVWVLENKRRS | 0.454 ± 0.23
58 | VHKYSSGMDYRSVVNLETLG | 0.192 ± 1
59 | CMNSSDLECPMGDCVCVVLN | 2.82 ± 0.1
60 | MIGDYTSFCMGSGF | inactive
61 | AYMVASMESMDACRVLRLPS | 0.87 ± 0.21
62 | EIDQSYVNTSSQQTSIYV | inactive
63 | LVLSGGRV | 0.184 ± 0.42
64 | LKFRRYVCKVLWEAYG | 0.153 ± 0.43
65 | DISWYCGDHGSVVVECRNDL | 2.63 ± 0.069
66 | SIGFPSMSMRSWILFTSLYR | 0.004 ± 0.8
67 | SSHLGTFLSDRGKSWVSGND | -0.569 ± 0.55
68 | LTVRDLVPPPAMANRFLTVI | -0.016 ± 0.44
69 | HTDLTSKFFYLNWCGLSLLR | 3.39 ± 0.072
70 | FIMMDRAGSMIYSKGTRNIR | 3.05 ± 0.11
71 | DVLCS | 0.626 ± 0.57
72 | FIIMFIRLLSW | 1.12 ± 0.14
73 | YCHPILMRYKPVYTCHYSLM | 4.86 ± 0.053
74 | EYMYYGFYCHYGSSVLAF | -0.731 ± 0.56
75 | HNTAMGLELVPQKKNGVK | -0.06 ± 1
76 | VALHWNWDLFLYVRYFFDHT | inactive
77 | MPWFIQMVHLCWFPEGRTRF | 4.85 ± 0.071
78 | SASDTRGCCQHIPVSLGILT | 0.119 ± 0.74

Row | Substance | amyloid nucleation score
79 | FWRVRVFGASLFL | inactive
80 | WWFYAYVYWRW | -0.403 ± 0.43
81 | NHRAIYF | 0.205 ± 0.77
82 | RRWEL | 0.687 ± 0.34
83 | KSESLLPLNWAHARALIHRA | 1.1 ± 0.36
84 | SYCYWMFSVLGGSSASEFRY | inactive
85 | RCPGCDE | 1.26 ± 0.25
86 | ANNVSGIIVCTNFDILMYGR | 7.791 ± 0.042
87 | YGYSIYLFTGCVKTVLFVSD | 4.68 ± 0.048
88 | EVHHNGM | 0.367 ± 0.62
89 | GNYNLALDLPLTFERFRQSH | -0.736 ± 0.44
90 | RYIGMLRFVVCDYGLMIFWS | -0.394 ± 1.1
91 | SMTCRDLFSWYGSWYQSILF | 0.874 ± 0.47
92 | WDTSGRFVLNWVFWEGHPKM | 0.768 ± 0.56
93 | KTMANI | -0.403 ± 0.37
94 | CRMSLRYTVPYSVQPLRGSL | 0.156 ± 0.41
95 | FTSLGMQLCYWHRISLCVSW | -1.05 ± 0.61
96 | VNLMVYASVIIGCAVARS | 7.06 ± 0.045
97 | HVFLINLGLNCGQRYRYRSL | 6.044 ± 0.047
98 | IHLLPLPYEVPSLLCTSRGP | 0.258 ± 0.4
99 | IHLHYNVDNCTFELLK | -0.499 ± 0.26
100 | IGCFTLR | 1.58 ± 0.088
101 | AISILNCSMMLRIWPSTAAL | 0.059 ± 0.5
102 | FYKLVAGNLANPCANRTCYL | -0.031 ± 1
103 | VKFCIMSGSTKTINNYSQAR | 5.57 ± 0.09
104 | QFILFCIPTPNQ | 4.93 ± 0.08

Row | Substance | amyloid nucleation score
105 | LPMNQGLHYKWLFFAISGGL | inactive
106 | LIYGDASETLC | 0.227 ± 0.43
107 | LFPFRASRGPVPYKRDQ | 1.89 ± 0.52
108 | ELRPIHIFKFFT | -0.253 ± 0.4
109 | AIRRYIVKAPLLCES | 1.75 ± 0.47
110 | NTLGSELLLFA | 1.75 ± 0.2
111 | TVFFIVPLCSLLDKVNSLGA | 3.34 ± 0.086
112 | YAFQGHGNFETGSYPEVLAA | 0.098 ± 0.49
113 | FHLEPLKWSWVST | -0.837 ± 1.1
114 | TEELRRFCGSFCTGYISMVW | inactive
115 | DDLLIRYC | -0.022 ± 0.21
116 | KNIVVTSPVLMNST | -0.179 ± 0.63
117 | VFTISESHLCWQYHLQEFT | 4.76 ± 0.068
118 | QLHIWVVIRYPLYLINKTVW | 0.436 ± 0.8
119 | TKQPSFTCPGLSSRILRRLK | 3.04 ± 0.18
120 | ALTPGYPSGARVP | 0.307 ± 0.49
121 | GVSGIEVVFYMLSKWGKHER | 4.13 ± 0.054
122 | CWSTQDHLNCVID | inactive
123 | EWLIAW | 1.29 ± 0.25
124 | KIVWCLVYNRDYYLQYRTIS | -0.625 ± 0.27
125 | NYILSMLCKMNARCLVTWRI | 0.712 ± 0.4
126 | YSEQNKWSRFVTDGGNLV | -0.802 ± 0.61
